The chains are these.
B1: human IL-17RC extracellular domain (receptor)
chain: LERLVGPQDATHCSPGLSCRLWDSDILCLPGDIVPAPGPVLAPTHLQTELVLRCQKETDCDLCLRVAVHLAVHGHWEEPEDEEKFGGAADSGVEEPRNASLQAQVVLSFQAYPTARCVLLEVQVPAALVQFGQSVGSVVYDCFEAALGSEVRIWSYTQPRYEKELNHTQQLPDCRGLEVWNSIPSCWALPWLNVSADGDNVHLVLNVSEEQHFGLSLYWNQVQGPPKPRWHKNLTGPQIITLNHTDLVPCLCIQVWPLEPDSVRTNICPFREDPRAHQNLWQAARLQLLTLQSWLLDAPCSLPAEAALCWRAPGGDPCQPLVPPLSWENVTVDKVLEFPLLKGHPNLCVQVNSSEKLQLQECLWADSLGPLKDDVLLLETRGPQDNRSLCALEPSGCTSLPSKASTRAARLGEYLLQDLQSGQCLQLWDDDLGALWACPMDKYIHKR

The target in assay [1] is human IL-17A/F heterodimer, Arg77 to alanine mutant (F-chain) (human, UniProt Q16552 24-155; Q96PD4 31-163, R77A). The assay can be described thus: SPR. In general terms: Surface plasmon resonance follows binding to a sensor surface in real time, without labels.
The target of assay [2] is B1. Description: SPR.

By Kd is commonly meant the free concentration of one partner at which half of the binding sites on the other are occupied at equilibrium, for simple one-to-one binding. A higher Kd goes with lower affinity. B1: binding in assay [1] was put at a Kd of 5.4 nM.

B2: human IL-17F homodimer (ligand)
chain: RKIPKVGHTFFQKPESCPPVPGGSMKLDIGIINENQRVSMSRNIESRSTSPWNYTVTWDPNRYPSEVVQAQCRNLGCINAQGKEDISMNSVPIQQETLVVRRKHQGCSVSFQLEKVLVTVGCTCVTPVIHHVQ
On to B2, for which binding in assay [2] was put at a Kd of 3.5 nM.

Values taken from paper PMC5566378 (2017).
